Results taken from patent US20190330277A1.
“And” between values parts separate entries of the source, which are not always exact repeats. Equal values may be shown once.

Columns and labels:
391-2_DS-Cav1-tzsc4 = assay: ELISA, variant from culture supernatant on Ni-NTA plate [continued]
[1] = biological target: RB94 DS-CAV1 N70K S104F K117T; assay: as above
[2] = biological target: sc9-10_DS-CAV1_bRSV(RB94)_Fd_fp1_ig1; assay: as above
391-2-DS-Cav1-BZGJ9 = assay: as above
391-2-DS-Cav1-BZGJ9_gyc2 = assay: as above
391-2_DS-Cav1-tzsc9 = assay: as above
391-2-DS-Cav1-BZGJ9_gyc4 = assay: as above
391-2_DS-Cav1-tzsc6 = assay: as above
[3] = biological target: 391-2-DS-Cav1-BZGJ9deleteFS; assay: as above
391-2-DS-Cav1- F-SC_11R = assay: as above
391-2-DS-Cav1-IP-7 = assay: as above
[4] = biological target: sc9-10_DS-CAV1_bRSV(RB94)_Fd_(hRSV-leader)_ig1; assay: as above
391-2-DS-Cav1-SC-IP-1 = assay: as above
391-2_DS-Cav1-tzsc2 = assay: as above
[5] = biological target: 391-2-DS-Cav1-BZGJ9_gyc10; assay: as above
391-2-DS-Cav1-IP-2 = assay: as above
391-2-DS-Cav1-BZGJ9 Long = assay: ELISA, variant from culture supernatant on Ni-NTA plate
391-2_DS-Cav1-tzsc3 = assay: as above
[6] = biological target: sc9-10_DS-CAV1_bRSV(RB94)_Fd_pm1_ig1; assay: as above
391-2-DSCav1- F-SC_7R = assay: as above
RB94 DS-Cav1 Long FdPL = assay: as above
[7] = biological target: RB94 sc9 DS-CAV1 N183GC-N428C L373R Long K226L; assay: as above
391-2-DS-Cav1-BZGJ9_gyc1 = assay: as above
[8] = biological target: 391-2-DS-Cav1-sc9 99C-362C; assay: as above
[9] = biological target: 391-2-DS-Cav1-sc9 100C-362C; assay: as above
391-2-DS-Cav1-BZGJ9_gyc7 = assay: as above
[10] = biological target: RB94 sc9 DS-CAV1 A149C-Y458C L373R Long; assay: as above
[11] = biological target: RB94 sc9 DS-CAV1 A149C-Y458C L373R Long K226L; assay: as above
[12] = biological target: 391-2-DS-Cav1-sc9 100C-361C; assay: as above
[13] = biological target: 391-2-DS-Cav1_ sc9_I395C-A490C; assay: as above
[14] = biological target: 391-2-DS-Cav1_ S398C-S485C; assay: as above
[15] = biological target: sc9-10_DS-CAV1_bRSV(RB94)_Fd_pm1_fp2_ig1; assay: as above
[16] = biological target: sc9-10_DS-CAV1_bRSV(RB94)_Fd_fp2_ig1; assay: as above
[17] = biological target: RB94 hu/bov DS-CAV1 A149C-Y458C Long; assay: as above
[18] = biological target: 391-2-DS-Cav1-sc9deleteFS 100C-361C; assay: as above
[19] = biological target: 391-2-DS-Cav1-sc9deleteFS 100C-362C; assay: as above
391-2_DS-Cav1-tzsc7 = assay: as above
[20] = biological target: 391-2-DS-Cav1-sc9deleteFS 98C-361C; assay: as above
[21] = biological target: bRSV RB94 DSCav1 (bovine respiratory syncytial virus, strain RB94) (UniProt P23728); assay: biolayer interferometry Octet binding analysis

motavizumab (antibody)
ELISA binding value (391-2_DS-Cav1-tzsc4): 0.639 and 0.505 | ELISA binding value [1]: 0.271 | ELISA binding value [2]: 0.545 | ELISA binding value (391-2-DS-Cav1-BZGJ9): 0.5 | ELISA binding value (391-2-DS-Cav1-BZGJ9_gyc2): 1.58 | ELISA binding value (391-2_DS-Cav1-tzsc9): 1.59 | ELISA binding value (391-2-DS-Cav1-BZGJ9_gyc4): 0.486 | ELISA binding value (391-2_DS-Cav1-tzsc6): 0.527 | ELISA binding value [3]: 0.152 | ELISA binding value (391-2-DS-Cav1- F-SC_11R): 0.538 | ELISA binding value (391-2-DS-Cav1-IP-7): 0.546 | ELISA binding value [4]: 0.538 | ELISA binding value (391-2-DS-Cav1-SC-IP-1): 1.1 | ELISA binding value (391-2_DS-Cav1-tzsc2): 0.366 | ELISA binding value [5]: 0.461 | ELISA binding value (391-2-DS-Cav1-IP-2): 0.556 | ELISA binding value (391-2-DS-Cav1-BZGJ9 Long): 1.55 | ELISA binding value (391-2_DS-Cav1-tzsc3): 0.785 | ELISA binding value [6]: 2.22 | ELISA binding value (391-2-DSCav1- F-SC_7R): 0.649 | ELISA binding value (RB94 DS-Cav1 Long FdPL): 0.841 | ELISA binding value [7]: 0.633 | ELISA binding value (391-2-DS-Cav1-BZGJ9_gyc1): 2.12 | ELISA binding value [8]: 0.393 | ELISA binding value [9]: 0.603 | ELISA binding value (391-2-DS-Cav1-BZGJ9_gyc7): 0.977 | ELISA binding value [10]: 0.512 | ELISA binding value [11]: 0.486 | ELISA binding value [12]: 1.63 | ELISA binding value [13]: 0.891 | ELISA binding value [14]: 0.545 | ELISA binding value [15]: 1.32 | ELISA binding value [16]: 0.748 | ELISA binding value [17]: 0.79 | ELISA binding value [18]: 0.477 | ELISA binding value [19]: 0.503 | ELISA binding value (391-2_DS-Cav1-tzsc7): 1.99 | ELISA binding value [20]: 0.899 | response level (biolayer interferometry) [21]: 0.5 nm
